# Measurements taken from the Immune Epitope Database (IEDB).
# Columns and labels:
# Test in all cases: IEDB peptide-MHC binding, purified MHC/competitive/fluorescence; filed as Kd, often an IC50 or EC50 that approximates it; ≥ and ≤ were set here for values at or beyond the usual limits of such assays
# [1] = molecular target: HLA-A*02:01
# [2] = molecular target: HLA-A*02:03
# [3] = molecular target: HLA-A*02:11
# [4] = molecular target: HLA-A*02:12
# [5] = molecular target: HLA-A*02:16
# [6] = molecular target: HLA-A*02:19
# [7] = molecular target: HLA-A*03:01
# [8] = molecular target: HLA-A*23:01
# [9] = molecular target: HLA-A*24:03
# [10] = molecular target: HLA-A*26:01
# [11] = molecular target: HLA-A*29:02
# [12] = molecular target: HLA-A*31:01; conditions: source organism: Entamoeba histolytica HM-1:IMSS
# [13] = molecular target: HLA-A*68:02
# [14] = molecular target: HLA-A*69:01
# [15] = molecular target: HLA-B*15:01
# [16] = molecular target: HLA-B*18:01
# [17] = molecular target: HLA-B*27:03
# [18] = molecular target: HLA-B*39:01
# [19] = molecular target: HLA-B*46:01
# [20] = molecular target: HLA-B*51:01
# [21] = molecular target: HLA-B*57:01
# [22] = molecular target: HLA-B*15:17
# [23] = source organism: Entamoeba histolytica HM-1:IMSS
# [24] = source organism: Influenza A virus (A/red knot/Delaware/2561/1987(H10N5))
# [25] = source organism: Bacillus cereus G9241
# [26] = source organism: Giardia lamblia ATCC 50803
sequence,measurement,setting,value
RTFDRFFEE,Kd,[1]; [23],≥ 20 µM
same,Kd,[2]; [23],≥ 20 µM
same,Kd,[3]; [23],≥ 20 µM
same,Kd,[4]; [23],≥ 20 µM
same,Kd,[5]; [23],≥ 20 µM
same,Kd,[6]; [23],≥ 20 µM
same,Kd,[7]; [23],≥ 20 µM
same,Kd,[8]; [23],≥ 20 µM
same,Kd,[9]; [23],≥ 20 µM
same,Kd,[10]; [23],≥ 20 µM
same,Kd,[11]; [23],≥ 20 µM
same,Kd,[12],318 nM
same,Kd,[13]; [23],≥ 20 µM
same,Kd,[14]; [23],≥ 20 µM
same,Kd,[15]; [23],≥ 20 µM
same,Kd,[16]; [23],≥ 20 µM
same,Kd,[17]; [23],≥ 20 µM
same,Kd,[18]; [23],≥ 20 µM
same,Kd,[19]; [23],≥ 20 µM
same,Kd,[20]; [23],≥ 20 µM
same,Kd,[21]; [23],≥ 20 µM
VMTDGPANK,Kd,[1]; [24],≥ 20 µM
same,Kd,[2]; [24],≥ 20 µM
same,Kd,[3]; [24],0.199 µM
same,Kd,[4]; [24],≥ 20 µM
same,Kd,[6]; [24],≥ 20 µM
same,Kd,[8]; [24],≥ 20 µM
same,Kd,[9]; [24],≥ 20 µM
same,Kd,[10]; [24],≥ 20 µM
same,Kd,[11]; [24],≥ 20 µM
same,Kd,[15]; [24],≥ 20 µM
same,Kd,[22]; [24],≥ 20 µM
same,Kd,[16]; [24],≥ 20 µM
same,Kd,[17]; [24],≥ 20 µM
same,Kd,[18]; [24],≥ 20 µM
same,Kd,[19]; [24],≥ 20 µM
same,Kd,[20]; [24],≥ 20 µM
same,Kd,[21]; [24],≥ 20 µM
DEEAINLFH,Kd,[1]; [25],≥ 20 µM
same,Kd,[2]; [25],≥ 20 µM
same,Kd,[3]; [25],≥ 20 µM
same,Kd,[4]; [25],≥ 20 µM
same,Kd,[5]; [25],≥ 20 µM
same,Kd,[6]; [25],≥ 20 µM
same,Kd,[7]; [25],≥ 20 µM
same,Kd,[8]; [25],≥ 20 µM
same,Kd,[9]; [25],≥ 20 µM
same,Kd,[10]; [25],≥ 20 µM
same,Kd,[11]; [25],≥ 20 µM
same,Kd,[13]; [25],≥ 20 µM
same,Kd,[14]; [25],≥ 20 µM
same,Kd,[15]; [25],≥ 20 µM
same,Kd,[22]; [25],≥ 20 µM
same,Kd,[16]; [25],0.692 µM
same,Kd,[17]; [25],≥ 20 µM
same,Kd,[18]; [25],≥ 20 µM
same,Kd,[19]; [25],≥ 20 µM
same,Kd,[20]; [25],≥ 20 µM
same,Kd,[21]; [25],≥ 20 µM
LLDDGWAGE,Kd,[1]; [26],≥ 20 µM
same,Kd,[2]; [26],≥ 20 µM
same,Kd,[3]; [26],≥ 20 µM
same,Kd,[4]; [26],6 µM
same,Kd,[6]; [26],≥ 20 µM
same,Kd,[7]; [26],≥ 20 µM
same,Kd,[8]; [26],≥ 20 µM
same,Kd,[9]; [26],≥ 20 µM
same,Kd,[10]; [26],≥ 20 µM
same,Kd,[11]; [26],≥ 20 µM
same,Kd,[13]; [26],≥ 20 µM
same,Kd,[14]; [26],≥ 20 µM
same,Kd,[15]; [26],≥ 20 µM
same,Kd,[22]; [26],≥ 20 µM
same,Kd,[16]; [26],≥ 20 µM
same,Kd,[17]; [26],≥ 20 µM
same,Kd,[18]; [26],≥ 20 µM
same,Kd,[19]; [26],≥ 20 µM
same,Kd,[20]; [26],≥ 20 µM
same,Kd,[21]; [26],≥ 20 µM
